{"source": "paper PMC8627417", "about": "(Journal for Immunotherapy of Cancer, 2021)", "target": "receptor of advanced glycation end products (RAGE) (UniProt Q15109 23-404)", "sequence (Q15109 23-404)": "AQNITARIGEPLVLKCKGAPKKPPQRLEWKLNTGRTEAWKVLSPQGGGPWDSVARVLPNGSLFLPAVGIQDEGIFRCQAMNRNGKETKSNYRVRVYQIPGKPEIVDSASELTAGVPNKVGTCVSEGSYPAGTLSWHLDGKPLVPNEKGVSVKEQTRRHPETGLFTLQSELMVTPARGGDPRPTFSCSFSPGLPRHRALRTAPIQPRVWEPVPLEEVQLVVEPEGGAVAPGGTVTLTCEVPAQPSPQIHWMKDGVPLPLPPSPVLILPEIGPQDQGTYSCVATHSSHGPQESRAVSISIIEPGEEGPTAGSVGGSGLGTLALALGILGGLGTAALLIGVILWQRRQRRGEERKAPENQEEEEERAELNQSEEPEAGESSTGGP", "data": [{"binder": "chitinase 3-like 1 (CHI3L1) (natural protein) not shown", "values": [{"measurement": "Kd", "result": "~16", "unit": "nM"}]}]}
